This note sets out measurements from PMC9590162.

The test has as its target human nesfatin-1 (human) (UniProt P80303). In words: AUC; SV-AUC, 20 °C, 50 000 rpm, buffer B with 300 or 500 μM ZnCl2; hN1 at 0.7, 1.0, 1.3 mg/ml; monomer to dimer.

Values joined by “and” are separate entries in the source; they are usually repeats but may differ in a detail not shown here. Equal entries are not always repeated.

The stoichiometry N is the number of molecules, sites or subunits per partner or assembly. Turning to “human nesfatin-1 (from UniProt P80303 25-106) (peptide)”, the percent of the two main sedimenting species in the larger (dimer) fraction was 58% and 45% and 51%; the stoichiometry N amounted to 2.
